What all share (test): cryo-EM structure; CMG (125 nM) with fork DNA, AMP-PNP, TIM-1/TIPN-1 and DNSN-1 isoform c (each 1.3-fold molar excess), GraFix gradient with glutaraldehyde and BS3
For test [1], the target named is recombinant C. elegans DNSN-1 (C. elegans).
The next test addresses T1, MCM-4 (C. elegans, UniProt Q95XQ8 1-823).
T1 construct: MCM-4, C. elegans; Subunit of m11, written alone for its interfaces in the structure; source: S. cerevisiae, purified as part of recombinant CMG
T1 sequence: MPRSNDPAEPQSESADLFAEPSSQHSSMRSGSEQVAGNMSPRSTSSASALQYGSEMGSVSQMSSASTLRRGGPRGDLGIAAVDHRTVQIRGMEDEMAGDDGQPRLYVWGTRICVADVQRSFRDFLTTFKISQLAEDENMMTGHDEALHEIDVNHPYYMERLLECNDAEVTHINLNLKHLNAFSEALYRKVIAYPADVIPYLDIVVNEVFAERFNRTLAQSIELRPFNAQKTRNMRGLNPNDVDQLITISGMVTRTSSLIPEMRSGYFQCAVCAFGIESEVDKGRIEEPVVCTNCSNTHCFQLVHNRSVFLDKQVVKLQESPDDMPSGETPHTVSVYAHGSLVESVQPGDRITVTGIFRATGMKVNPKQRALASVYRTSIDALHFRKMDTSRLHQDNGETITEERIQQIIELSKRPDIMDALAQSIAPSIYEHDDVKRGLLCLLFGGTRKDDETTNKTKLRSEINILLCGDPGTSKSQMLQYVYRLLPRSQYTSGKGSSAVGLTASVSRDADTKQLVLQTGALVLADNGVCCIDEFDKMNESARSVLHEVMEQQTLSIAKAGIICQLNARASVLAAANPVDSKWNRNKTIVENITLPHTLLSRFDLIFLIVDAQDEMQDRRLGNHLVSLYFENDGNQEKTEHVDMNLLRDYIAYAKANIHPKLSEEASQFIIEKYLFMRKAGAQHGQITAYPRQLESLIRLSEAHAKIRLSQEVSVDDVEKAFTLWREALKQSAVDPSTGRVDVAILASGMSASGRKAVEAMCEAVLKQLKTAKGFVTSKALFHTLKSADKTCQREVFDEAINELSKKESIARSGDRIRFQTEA
The following applies: both partners purified.

A further test addresses T2, MCM-3 (C. elegans, UniProt Q9XVR7 1-812).
T2 construct: MCM-3, C. elegans; Subunit of m11, written alone for its contacts in the structure; also called MCM-3 subunit of MCM-2-7; source: S. cerevisiae, purified as part of recombinant CMG
T2 sequence: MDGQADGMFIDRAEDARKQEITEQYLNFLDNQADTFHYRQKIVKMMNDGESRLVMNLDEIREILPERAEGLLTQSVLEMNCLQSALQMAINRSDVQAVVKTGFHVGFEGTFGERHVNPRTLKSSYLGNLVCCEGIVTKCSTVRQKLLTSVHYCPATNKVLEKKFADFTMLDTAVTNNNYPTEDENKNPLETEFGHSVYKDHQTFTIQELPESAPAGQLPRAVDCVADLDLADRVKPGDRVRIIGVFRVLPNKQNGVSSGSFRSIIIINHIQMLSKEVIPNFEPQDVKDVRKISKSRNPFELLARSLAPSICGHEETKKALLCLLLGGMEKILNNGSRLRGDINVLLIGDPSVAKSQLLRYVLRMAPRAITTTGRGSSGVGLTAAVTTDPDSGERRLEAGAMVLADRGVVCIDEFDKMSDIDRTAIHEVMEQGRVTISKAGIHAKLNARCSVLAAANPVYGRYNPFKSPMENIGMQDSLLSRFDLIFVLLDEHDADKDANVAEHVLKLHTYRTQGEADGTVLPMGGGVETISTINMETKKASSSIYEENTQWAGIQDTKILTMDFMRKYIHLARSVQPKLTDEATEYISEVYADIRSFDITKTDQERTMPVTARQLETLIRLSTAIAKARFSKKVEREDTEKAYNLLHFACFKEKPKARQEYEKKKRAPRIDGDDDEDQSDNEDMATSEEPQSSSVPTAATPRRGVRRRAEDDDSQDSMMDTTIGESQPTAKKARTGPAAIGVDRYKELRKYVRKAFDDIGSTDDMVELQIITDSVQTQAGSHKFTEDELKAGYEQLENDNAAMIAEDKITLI
The settings on record: both partners purified.

The source of these data is article PMC7615117, “DNSN-1 recruits GINS for CMG helicase assembly during DNA replication initiation in C. elegans” (Science (New York, N.Y.), 2023).

By stoichiometry N is commonly meant the number of molecules, sites or subunits per partner or assembly.

With “recombinant C. elegans DNSN-1 (natural protein)”, the stoichiometry N in test [1] stood at 2.

B1: MCM-7 (natural protein, C. elegans)
chain: MKTTTYNTDWAAEKTKIRSFFDEYYVDNEDGSGKAFPYRDQVFEIARRDKQAIVVNVDHIKESDIPDALELSEAITSNTKRYEVLFKDTISDMIQDYLGDKQAPVIDALDAYMFQRLHMDRNEGAANEEVSLQDKRKKYPPQLLQRFEVYFTTDDAAHETCVRNIKATEIGHLVSMKGVVIRATEVKPCVEVMTYTCDTCAAEVYQPVKGMQFTPPVNCPNKECVEAKANGRLHMQLRGSKFVKFQELKIQELSEQVPVGSIPRTMTVHVYGEMTRKCNTGNVVHVSGVFLPIMQSGFRPTGGLVADTYLEAHYINNLDDNPTFNGVQSAELEVLRRKGDNYETLAASIAPEIFGHVDVKKCLLMALVGGNDNSSNGMKIRGCINVLMMGDPGVAKSQLLGYVNRLAPRSQYTTGRGSSGVGLTAAVMKDPVTGEMSLEGGALVLADGGICCIDEFDKMMDHDRTAIHEVMEQQTISIAKAGIMTTLNARTAIIAAANPAYGRYNPNRSIEQNVDLPAALLSRFDLILLMQDKADRENDKILAEHITYVHQHGCHPNREKKDLISLETLREYISLCKTYTPTVDPALRERIVEAYVEMRRDARYSSDPTFVSPRMILGIVRMATARAKLRLSTIVDESDVEEALRLMQFAKDSLRPEQNKIEKRMAPVDAAFAVLRELYHADNAPIAISNAIQRCARKGISEVALKKCLDQYTANGLLVMDRQNIVFAMN
notes: MCM-7, C. elegans; Subunit of m11, written alone for its interfaces in the structure; source: S. cerevisiae, purified as part of recombinant CMG
Regarding B1, the binding result in the test with MCM-4 and with MCM-3 was “binds” in each case.
